Literature values as cited in paper PMC10536416.
Where two headings read alike, the source gives them in different places.

How the values were obtained:
[1] = target: Amyloid beta 1-42 Abeta 1-42 (Homo sapiens) (UniProt P05067)
[2] = target: Amyloid beta 1-42 Abeta 1-42 (Homo sapiens) (UniProt P05067); remark: listed apart in the source

Substance: Amyloid beta 1-40 on dextran-coated iron oxide nanoparticles Abeta 1-40 (from UniProt P05067)
- Kd [1]: 202 nM

Substance: Amyloid beta 1-40 Abeta 1-40 (from UniProt P05067)
- Kd [2]: 266 nM
